Consider 1 protein from US20120064078.

The target of the data set is Thr90 phosphorylated Hsp90α (pT90-Hsp90α), recombinant human Hsp90α phosphorylated by recombinant protein kinase A.

B1: recombinant human PP5 protein (protein phosphatase 5) (protein)
chain: MAMAEGERTECAEPPRDEPPADGALKRAEELKTQANDYFKAKDYENAIKFYSQAIELNPSNAIYYGNRSLAYLRTECYGYALGDATRAIELDKKYIKGYYRRAASNMALGKFRAALRDYETVVKVKPHDKDAKMKYQECNKIVKQKAFERAIAGDEHKRSVVDSLDIESMTIEDEYSGPKLEDGKVTISFMKELMQWYKDQKKLHRKCAYQILVQVKEVLSKLSTLVETTLKETEKITVCGDTHGQFYDLLNIFELNGLPSETNPYIFNGDFVDRGSFSVEVILTLFGFKLLYPDHFHLLRGNHETDNMNQIYGFEGEVKAKYTAQMYELFSEVFEWLPLAQCINGKVLIMHGGLFSEDGVTLDDIRKIERNRQPPDSGPMCDLLWSDPQPQNGRSISKRGVSCQFGPDVTKAFLEENNLDYIIRSHEVKAEGYEVAHGGRCVTVFSAPNYCDQMGNKASYIHLQGSDLRPQFHQFTAVPHPNVKPMAYANTLLQLGMM
Regarding B1, the “release of free phosphate (non-radioactive serine/threonine phosphatase assay)” value is on record as “the release of free phosphate was also significantly increased, P value<0.005”.
